In assay [1] the target is T1, HLA-A2.1 (HLA-A*0201) on the surface of T2 cells (human).
T1 construct: MHC class I molecule on T2 cells
The assay can be described thus: HLA-A2 binding assay, FACS profiles (T2 cells); the weaker of the two 9-mers.

Assay [2] has as its target T1, HLA-A2.1 (HLA-A*0201) on the surface of …. The assay can be described thus: HLA-A2 binding assay, FACS profiles (T2 cells).
The target is the same in assay [3]. Description: T2 cell HLA-A2.1 stabilisation, flow cytometry with FITC anti-HLA A2, A28.
The target is the same in assay [4]. Description: T2 cell HLA-A*0201 stabilisation, flow cytometry.

B1: tyrosinase208-216, LPWHRLFLL (peptide)
peptide: LPWHRLFLL
notes: Synthetic 9-mer from tyrosinase; also called Tyr 208-216
Regarding B1, the binding result in assay [1] is “binds”.

B2: tyrosinase207-215, FLPWHRLFL (peptide)
peptide: FLPWHRLFL
notes: Synthetic 9-mer from tyrosinase; also called Tyr 207-215
Regarding B2, the binding result in assay [2] was “binds”.

B3: SSX-2 41-49, KASEKIFYV (peptide)
peptide: KASEKIFYV
notes: also called 15
On to B3, for which, in assay [3], the binding result is reported as “binds”.

B4: PSMA663-671 (SEQ ID NO. 66) (peptide)
peptide: MMNDQLMFL
notes: Synthetic 9-mer from prostate specific membrane antigen
On to B4, for which, in assay [4], the binding result is on record as “binds”.
